Results on five molecules are retold here after patent US20070243583A1 (University of Texas, published 2007).

B1: FkpA-DsbA3 (protein)
chain: AEAAKPATAADSKAAFKNDDQKSAYALGASLGRYMENSLKEQEKLGIKLDKDQLIAGVQDAFADKSKLSDQEIEQTLQAFEARVKSSAQAKMEKDAADNEAKGKEYREKFAKEKYEDGKQYTTLEKPVAGAPQVLEFFSFFCPHCYQFEEVLHISDNVKKKLPEGVKMTKYHVNFMGGDLGKDLTQAWAVAMALGVEDKVTVPLFEGVQKTQTIRSASDIRDVFINAGIKGEEYDAAWNSFVVKSLVAQQEKAAADVQLRGVPAMFVNGKYQLNPQGMDTSNMDVFVQQYADTVKYLSEKKHHHHHH
B2: FkpA-DsbA5 (protein)
chain: AEAAKPATAADSKAAFKNDDQKSAYALGASLGRYMENSLKEQEKLGIKLDKDQLIAGVQDAFADKSKLSDQEIEQTLQAFEARVKSSAQAKMEKDAADNEAKGKEYREKFAKEKDGKQYTTLEKPVAGAPQVLEFFSFFCPHCYQFEEVLHISDNVKKKLPEGVKMTKYHVNFMGGDLGKDLTQAWAVAMALGVEDKVTVPLFEGVQKTQTIRSASDIRDVFINAGIKGEEYDAAWNSFVVKSLVAQQEKAAADVQLRGVPAMFVNGKYQLNPQGMDTSNMDVFVQQYADTVKYLSEKKHHHHHH
B3: FkpA-DsbA2 (protein)
chain: AEAAKPATAADSKAAFKNDDQKSAYALGASLGRYMENSLKEQEKLGIKLDKDQLIAGVQDAFADKSKLSDQEIEQTLQAFEARVKSSAQAKMEKDAADNEAKGKEYREKFAKEKQYEDGKQYTTLEKPVAGAPQVLEFFSFFCPHCYQFEEVLHISDNVKKKLPEGVKMTKYHVNFMGGDLGKDLTQAWAVAMALGVEDKVTVPLFEGVQKTQTIRSASDIRDVFINAGIKGEEYDAAWNSFVVKSLVAQQEKAAADVQLRGVPAMFVNGKYQLNPQGMDTSNMDVFVQQYADTVKYLSEKKHHHHHH
B4: DsbC (enzyme, Escherichia coli, UniProt P0AEG6 21-236, looked up)
chain: DDAAIQQTLAKMGIKSSDIQPAPVAGMKTVLTNSGVLYITDDGKHIIQGPMYDVSGTAPVNVTNKMLLKQLNALEKEMIVYKAPQEKHVITVFTDITCGYCHKLHEQMADYNALGITVRYLAFPRQGLDSDAEKEMKAIWCAKDKNKAFDDVMAGKSVAPASCDVDIADHYALGVQLGVSGTPAVVLSNGTLVPGYQPPKEMKEFLDEHQKMTSGK
notes: also called wild-type DsbC
B5: FkpA-DsbA4 (protein)
chain: AEAAKPATAADSKAAFKNDDQKSAYALGASLGRYMENSLKEQEKLGIKLDKDQLIAGVQDAFADKSKLSDQEIEQTLQAFEARVKSSAQAKMEKDAADNEAKGKEYREKFAKEKEDGKQYTTLEKPVAGAPQVLEFFSFFCPHCYQFEEVLHISDNVKKKLPEGVKMTKYHVNFMGGDLGKDLTQAWAVAMALGVEDKVTVPLFEGVQKTQTIRSASDIRDVFINAGIKGEEYDAAWNSFVVKSLVAQQEKAAADVQLRGVPAMFVNGKYQLNPQGMDTSNMDVFVQQYADTVKYLSEKKHHHHHH

The first data set deals with insulin.
Test: not given
Molecule B1 gave an Insulin Reduction (*10^3 DA650 nm/min^-2) of 0.43.
Still for that read-out and setting: in the case of B2 it was 0.38; in that of B3, 0.45; in that of B4, 5.81.
Still for that read-out and setting: in the case of B5 it was 0.55.

A further data set has as its target citrate synthase.
Test: not given
The molecule B1 yielded a Citrate Synthase Inactivation, CS t1/2 of 2.01 min and a Citrate Synthase Inactivation, µ of 0.36 min - 1.
Take B2: the Citrate Synthase Inactivation, CS t1/2 was 2.71 min and the Citrate Synthase Inactivation, µ was found to be 0.26 min - 1.
B3 had a Citrate Synthase Inactivation, CS t1/2 of 2.46 min and a Citrate Synthase Inactivation, µ of 0.17 min - 1.
On the same counts, the results for B4 are 3.15 min and 0.22 min - 1.
In the same order, the values of B5 are 3.82 min and 0.45 min - 1.

A further data set deals with the molecule itself. Nature of the data set: gel filtration FPLC of the purified protein (self-association, homodimer). In general terms: In gel filtration, larger molecules generally elute earlier.
As for B4, the binding result is reported as “binds”.

For a further data set, the target named is T1, RNase A (UniProt P61823 27-150).
T1 sequence (looked up): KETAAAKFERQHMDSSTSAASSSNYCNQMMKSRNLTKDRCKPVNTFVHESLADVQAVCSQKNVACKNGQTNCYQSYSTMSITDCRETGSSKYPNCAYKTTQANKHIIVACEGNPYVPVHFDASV
Nature of the data set: cell-based or functional assay.
Consider B4, for which the “RNAse Refolding” value is 0.067 µM/min/µM Enzyme.
